Measured values reported in PMC4553094 (Thrombosis research, 2015).

Assays:
[1] = target: Glycoprotein Ib-IX complex captured from platelet lysates (human (endogenous in platelets)) (UniProt P07359); assay: biomembrane force probe
[2] = target: T1, Human placenta type III collagen (human, UniProt P02461 154-1221, covalently modified with maleimide-PEG3500-NHS for coupling to beads); assay: biomembrane force probe
T1 sequence (looked up): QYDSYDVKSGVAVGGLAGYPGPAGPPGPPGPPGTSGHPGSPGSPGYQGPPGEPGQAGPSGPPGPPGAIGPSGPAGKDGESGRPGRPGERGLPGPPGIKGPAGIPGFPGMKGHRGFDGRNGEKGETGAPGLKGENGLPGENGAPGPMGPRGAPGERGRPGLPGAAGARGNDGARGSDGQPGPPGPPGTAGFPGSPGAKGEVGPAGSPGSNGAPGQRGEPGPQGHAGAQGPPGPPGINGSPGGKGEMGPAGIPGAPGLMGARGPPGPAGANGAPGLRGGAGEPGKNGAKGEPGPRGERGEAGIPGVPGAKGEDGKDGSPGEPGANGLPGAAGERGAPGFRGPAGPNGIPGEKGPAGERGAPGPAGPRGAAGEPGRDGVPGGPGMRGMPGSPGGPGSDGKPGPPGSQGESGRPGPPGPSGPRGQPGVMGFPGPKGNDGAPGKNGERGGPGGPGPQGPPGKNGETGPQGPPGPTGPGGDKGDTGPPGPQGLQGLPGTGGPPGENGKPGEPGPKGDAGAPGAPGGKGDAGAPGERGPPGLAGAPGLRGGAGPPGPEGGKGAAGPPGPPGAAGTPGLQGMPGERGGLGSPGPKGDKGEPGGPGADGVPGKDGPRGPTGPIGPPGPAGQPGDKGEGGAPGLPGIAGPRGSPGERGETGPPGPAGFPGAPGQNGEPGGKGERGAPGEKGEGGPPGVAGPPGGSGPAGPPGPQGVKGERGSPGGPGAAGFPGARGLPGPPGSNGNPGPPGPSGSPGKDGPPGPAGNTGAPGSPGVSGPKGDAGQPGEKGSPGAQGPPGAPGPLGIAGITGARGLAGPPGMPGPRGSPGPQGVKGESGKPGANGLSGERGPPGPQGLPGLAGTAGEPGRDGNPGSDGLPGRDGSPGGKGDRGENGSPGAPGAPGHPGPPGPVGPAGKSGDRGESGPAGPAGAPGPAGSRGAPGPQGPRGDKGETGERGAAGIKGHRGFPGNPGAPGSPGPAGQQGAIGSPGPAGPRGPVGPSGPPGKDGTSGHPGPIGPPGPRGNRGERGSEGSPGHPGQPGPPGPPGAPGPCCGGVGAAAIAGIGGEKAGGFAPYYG

Plasma von Willebrand factor (from UniProt P04275 764-2813) (natural protein)
bond lifetime at the peak force [1]: 3.1 s

Recombinant wild-type monomeric VWF 1238-A1 (residues 1238-1471) (from UniProt P04275 1238-1471) (domain or fragment)
bond lifetime at the peak force [1]: 1.5 s

B1: Recombinant wild-type monomeric VWF A3 domain (residues 1687-1874) (domain or fragment)
chain: SQPLDVILLLDGSSSFPASYFDEMKSFAKAFISKANIGPRLTQVSVLQYGSITTIDVPWNVVPEKAHLLSLVDVMQREGGPSQIGDALGFAVRYLTSEMHGARPGASKAVVILVTDVSVDSVDAAADAARSNRVTVFPIGIGDRYDAAQLRILAGPAGDSNVVKLQRIEDLPTMVTLGNSFLHKLCSG
affinity to collagen relative to that of A1 [2]: 10 times
